Values quoted from earlier work in patent publication US20050054617A1, “Use of potent, selective and non toxic c-kit inhibitors for treating mastocytosis” (priority 2001, published 2005).

System: systemic mastocytosis
Settings: person, infiltration of bone marrow, skin and gastric mucosa; recurrence after four months

B1: INFγ: interferon used in the art for mastocytosis (protein, UniProt P01579 24-161, looked up)
Interferon gamma: QDPYVKEAENLKKYFNAGHSDVADNGTLFLGILKNWKEESDRKIMQSQIVSFYFKLFKNFKDDQSIQKSVETIKEDMNVKFFNSNKKKRDDFEKLTNYSVTDLNVQRKAIHELIQVMAELSPAAKTGKRKRSQMLFRG
  clinical outcome in systemic mastocytosis: improvement of the clinical situation and gastrointestinal and hematological signs
